# Assay results reported in IntAct's records for PubMed 31515488.
# B1: L-fucose dehydrogenase (Homo sapiens), Q9BPX1 (parent)
# chain: MATGTRYAGKVVVVTGGGRGIGAGIVRAFVNSGARVVICDKDESGGRALEQELPGAVFILCDVTQEDDVKTLVSETIRRFGRLDCVVNNAGHHPPPQRPEETSAQGFRQLLELNLLGTYTLTKLALPYLRKSQGNVINISSLVGAIGQAQAVPYVATKGAVTAMTKALALDESPYGVRVNCISPGNIWTPLWEELAALMPDPRATIREGMLAQPLGRMGQPAEVGAAAVFLASEANFCTGIELLVTGGAELGYGCKASRSTPVDAPDIPS
# B2: Isoform Long of Autophagy protein 5 (Homo sapiens), Q9H1Y0-1 (parent)
# chain: MTDDKDVLRDVWFGRIPTCFTLYQDEITEREAEPYYLLLPRVSYLTLVTDKVKKHFQKVMRQEDISEIWFEYEGTPLKWHYPIGLLFDLLASSSALPWNITVHFKSFPEKDLLHCPSKDAIEAHFMSCMKEADALKHKSQVINEMQKKDHKQLWMGLQNDRFDQFWAINRKLMEYPAEENGFRYIPFRIYQTTTERPFIQKLFRPVAADGQLHTLGDLLKEVCPSAIDPEDGEKKNQVMIHGIEPMLETPLQWLSEHLSYPDNFLHISIIPQPTD
# B3: Methylmalonyl-CoA epimerase, mitochondrial (Homo sapiens), Q96PE7 (parent)
# chain: MARVLKAAAANAVGLFSRLQAPIPTVRASSTSQPLDQVTGSVWNLGRLNHVAIAVPDLEKAAAFYKNILGAQVSEAVPLPEHGVSVVFVNLGNTKMELLHPLGRDSPIAGFLQKNKAGGMHHICIEVDNINAAVMDLKKKKIRSLSEEVKIGAHGKPVIFLHPKDCGGVLVELEQA
# B4: DCC-interacting protein 13-beta (Homo sapiens), Q8NEU8 (parent)
# chain: MPAVDKLLLEEALQDSPQTRSLLSVFEEDAGTLTDYTNQLLQAMQRVYGAQNEMCLATQQLSKQLLAYEKQNFALGKGDEEVISTLHYFSKVVDELNLLHTELAKQLADTMVLPIIQFREKDLTEVSTLKDLFGLASNEHDLSMAKYSRLPKKKENEKVKTEVGKEVAAARRKQHLSSLQYYCALNALQYRKQMAMMEPMIGFAHGQINFFKKGAEMFSKRMDSFLSSVADMVQSIQVELEAEAEKMRVSQQELLSVDESVYTPDSDVAAPQINRNLIQKAGYLNLRNKTGLVTTTWERLYFFTQGGNLMCQPRGAVAGGLIQDLDNCSVMAVDCEDRRYCFQITTPNGKSGIILQAESRKENEEWICAINNISRQIYLTDNPEAVAIKLNQTALQAVTPITSFGKKQESSCPSQNLKNSEMENENDKIVPKATASLPEAEELIAPGTPIQFDIVLPATEFLDQNRGSRRTNPFGETEDESFPEAEDSLLQQMFIVRFLGSMAVKTDSTTEVIYEAMRQVLAARAIHNIFRMTESHLMVTSQSLRLIDPQTQVSRANFELTSVTQFAAHQENKRLVGFVIRVPESTGEESLSTYIFESNSEGEKICYAINLGKEIIEVQKDPEALAQLMLSIPLTNDGKYVLLNDQPDDDDGNPNEHRGAESEA
# partner: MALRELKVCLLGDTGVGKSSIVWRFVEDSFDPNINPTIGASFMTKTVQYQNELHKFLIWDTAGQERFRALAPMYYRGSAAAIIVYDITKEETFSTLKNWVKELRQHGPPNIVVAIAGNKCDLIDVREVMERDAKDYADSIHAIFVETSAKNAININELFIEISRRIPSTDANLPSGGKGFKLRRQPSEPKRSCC
# B5: Tuftelin-interacting protein 11 (Homo sapiens), Q9UBB9 (parent)
# chain: MSLSHLYRDGEGRIDDDDDERENFEITDWDLQNEFNPNRQRHWQTKEEATYGVWAERDSDDERPSFGGKRARDYSAPVNFISAGLKKGAAEEAELEDSDDEEKPVKQDDFPKDFGPRKLKTGGNFKPSQKGFAGGTKSFMDFGSWERHTKGIGQKLLQKMGYVPGRGLGKNAQGIINPIEAKQRKGKGAVGAYGSERTTQSMQDFPVVDSEEEAEEEFQKELSQWRKDPSGSKKKPKYSYKTVEELKAKGRISKKLTAPQKELSQVKVIDMTGREQKVYYSYSQISHKHNVPDDGLPLQSQQLPQSGKEAKAPGFALPELEHNLQLLIDLTEQEIIQNDRQLQYERDMVVNLFHELEKMTEVLDHEERVISNLSKVLEMVEECERRMQPDCSNPLTLDECARIFETLQDKYYEEYRMSDRVDLAVAIVYPLMKEYFKEWDPLKDCTYGTEIISKWKSLLENDQLLSHGGQDLSADAFHRLIWEVWMPFVRNIVTQWQPRNCDPMVDFLDSWVHIIPVWILDNILDQLIFPKLQKEVENWNPLTDTVPIHSWIHPWLPLMQARLEPLYSPIRSKLSSALQKWHPSDSSAKLILQPWKDVFTPGSWEAFMVKNIVPKLGMCLGELVINPHQQHMDAFYWVIDWEGMISVSSLVGLLEKHFFPKWLQVLCSWLSNSPNYEEITKWYLGWKSMFSDQVLAHPSVKDKFNEALDIMNRAVSSNVGAYMQPGARENIAYLTHTERRKDFQYEAMQERREAENMAQRGIGVAASSVPMNFKDLIETKAEEHNIVFMPVIGKRHEGKQLYTFGRIVIYIDRGVVFVQGEKTWVPTSLQSLIDMAK
# partner: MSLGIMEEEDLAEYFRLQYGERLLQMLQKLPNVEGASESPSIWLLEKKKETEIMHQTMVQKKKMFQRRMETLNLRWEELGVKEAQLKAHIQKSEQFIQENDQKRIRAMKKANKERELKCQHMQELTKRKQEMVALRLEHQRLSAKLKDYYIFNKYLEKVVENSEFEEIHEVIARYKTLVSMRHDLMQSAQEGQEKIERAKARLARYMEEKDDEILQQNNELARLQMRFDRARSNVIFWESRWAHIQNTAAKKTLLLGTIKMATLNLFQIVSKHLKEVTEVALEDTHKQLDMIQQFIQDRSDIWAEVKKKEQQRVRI
# B6: Angiomotin (Homo sapiens), Q4VCS5 (parent)
# chain: MRNSEEQPSGGTTVLQRLLQEQLRYGNPSENRSLLAIHQQATGNGPPFPSGSGNPGPQSDVLSPQDHHQQLVAHAARQEPQGQEIQSENLIMEKQLSPRMQNNEELPTYEEAKVQSQYFRGQQHASVGAAFYVTGVTNQKMRTEGRPSVQRLNPGKMHQDEGLRDLKQGHVRSLSERLMQMSLATSGVKAHPPVTSAPLSPPQPNDLYKNPTSSSEFYKAQGPLPNQHSLKGMEHRGPPPEYPFKGMPPQSVVCKPQEPGHFYSEHRLNQPGRTEGQLMRYQHPPEYGAARPAQDISLPLSARNSQPHSPTSSLTSGGSLPLLQSPPSTRLSPARHPLVPNQGDHSAHLPRPQQHFLPNQAHQGDHYRLSQPGLSQQQQQQQQQHHHHHHHQQQQQQQPQQQPGEAYSAMPRAQPSSASYQPVPADPFAIVSRAQQMVEILSDENRNLRQELEGCYEKVARLQKVETEIQRVSEAYENLVKSSSKREALEKAMRNKLEGEIRRMHDFNRDLRERLETANKQLAEKEYEGSEDTRKTISQLFAKNKESQREKEKLEAELATARSTNEDQRRHIEIRDQALSNAQAKVVKLEEELKKKQVYVDKVEKMQQALVQLQAACEKREQLEHRLRTRLERELESLRIQQRQGNCQPTNVSEYNAAALMELLREKEERILALEADMTKWEQKYLEENVMRHFALDAAATVAAQRDTTVISHSPNTSYDTALEARIQKEEEEILMANKRCLDMEGRIKTLHAQIIEKDAMIKVLQQRSRKEPSKTEQLSCMRPAKSLMSISNAGSGLLSHSSTLTGSPIMEEKRDDKSWKGSLGILLGGDYRAEYVPSTPSPVPPSTPLLSAHSKTGSRDCSTQTERGTESNKTAAVAPISVPAPVAAAATAAAITATAATITTTMVAAAPVAVAAAAAPAAAAAPSPATAAATAAAVSPAAAGQIPAAASVASAAAVAPSAAAAAAVQVAPAAPAPVPAPALVPVPAPAAAQASAPAQTQAPTSAPAVAPTPAPTPTPAVAQAEVPASPATGPGPHRLSIPSLTCNPDKTDGPVFHSNTLERKTPIQILGQEPDAEMVEYLI
# Variants of: B1
# Settings: with psa1_human PSMA1, P25786
# Sequence of psa1_human PSMA1, P25786 (P25786 whole entry): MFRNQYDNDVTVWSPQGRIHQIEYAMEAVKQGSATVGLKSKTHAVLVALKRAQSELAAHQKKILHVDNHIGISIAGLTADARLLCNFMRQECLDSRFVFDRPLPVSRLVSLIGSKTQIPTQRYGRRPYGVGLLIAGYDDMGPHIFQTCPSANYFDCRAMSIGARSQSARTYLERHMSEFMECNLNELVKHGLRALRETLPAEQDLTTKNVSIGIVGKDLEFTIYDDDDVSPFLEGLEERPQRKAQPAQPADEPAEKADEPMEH
row,effect of a mutation on the interaction,Variant
1,with no effect,A56T

# Variants of: B1
# Settings: with sr1ip_human SREK1IP1, Q8N9Q2
# Sequence of sr1ip_human SREK1IP1, Q8N9Q2 (Q8N9Q2 whole entry): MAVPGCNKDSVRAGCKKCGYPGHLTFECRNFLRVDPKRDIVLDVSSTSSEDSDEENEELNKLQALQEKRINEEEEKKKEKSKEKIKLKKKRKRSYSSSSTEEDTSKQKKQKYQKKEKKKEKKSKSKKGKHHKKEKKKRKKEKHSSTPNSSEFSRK
row,effect of a mutation on the interaction,Variant
1,with no effect,A56T

# Variants of: B1
# Settings: with ntaq1_human NTAQ1, Q96HA8
row,effect of a mutation on the interaction,Variant
1,with no effect,A56T

# Variants of: B2
# Settings: with tera_human VCP
row,effect of a mutation on the interaction,Variant
1,disrupting interaction strength,K58M

# Variants of: B2
# Settings: with keap1_human KEAP1, Q14145
# Sequence of keap1_human KEAP1, Q14145 (Q14145 whole entry): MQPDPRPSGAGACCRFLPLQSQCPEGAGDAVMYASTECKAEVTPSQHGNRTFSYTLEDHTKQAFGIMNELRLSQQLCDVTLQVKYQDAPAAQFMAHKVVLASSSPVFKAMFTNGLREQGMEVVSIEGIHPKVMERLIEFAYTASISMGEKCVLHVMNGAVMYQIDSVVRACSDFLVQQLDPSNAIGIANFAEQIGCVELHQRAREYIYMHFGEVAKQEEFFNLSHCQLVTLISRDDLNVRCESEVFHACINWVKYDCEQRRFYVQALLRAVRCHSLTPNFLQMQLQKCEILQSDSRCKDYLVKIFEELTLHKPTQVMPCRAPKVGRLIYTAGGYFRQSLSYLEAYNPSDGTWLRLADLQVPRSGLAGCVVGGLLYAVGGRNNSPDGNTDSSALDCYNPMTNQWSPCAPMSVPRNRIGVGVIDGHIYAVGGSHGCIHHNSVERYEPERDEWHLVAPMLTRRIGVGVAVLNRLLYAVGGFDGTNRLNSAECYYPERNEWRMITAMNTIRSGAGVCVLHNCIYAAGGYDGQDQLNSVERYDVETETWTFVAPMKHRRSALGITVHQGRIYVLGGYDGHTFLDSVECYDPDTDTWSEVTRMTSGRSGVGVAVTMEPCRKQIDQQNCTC
row,effect of a mutation on the interaction,Variant
1,with no effect,K58M

# Variants of: B3
# Settings: with atrap_human AGTRAP
row,effect of a mutation on the interaction,Variant
1,with no effect,A76V
2,with no effect,R143H

# Variants of: B4
# Settings: with rb22a_human RAB22A
row,effect of a mutation on the interaction,Variant
1,with no effect,K70R

# Variants of: B5
# Settings: with ccd42_human CCDC42, Q96M95
row,effect of a mutation on the interaction,Variant
1,with no effect,R8Q
2,with no effect,S688L

# Variants of: B6
# Settings: with maga4_human MAGEA4, P43358
# Sequence of maga4_human MAGEA4, P43358 (P43358 whole entry): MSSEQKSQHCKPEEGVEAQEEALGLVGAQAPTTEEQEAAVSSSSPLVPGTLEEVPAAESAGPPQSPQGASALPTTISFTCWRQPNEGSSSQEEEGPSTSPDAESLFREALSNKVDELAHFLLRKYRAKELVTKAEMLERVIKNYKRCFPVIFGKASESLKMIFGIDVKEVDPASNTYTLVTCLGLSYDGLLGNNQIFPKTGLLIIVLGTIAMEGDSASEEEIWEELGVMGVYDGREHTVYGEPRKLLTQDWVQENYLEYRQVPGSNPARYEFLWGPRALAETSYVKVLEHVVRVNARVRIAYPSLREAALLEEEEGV
row,effect of a mutation on the interaction,Variant
1,with no effect,T899A
